The values below come from US20260234121A1, “DERIVATIVES, IMMUNOGENS, AND ANTIBODIES AND USE OF THE SAME IN DETECTION OF ECSTASY-CLASS COMPOUNDS” (Siemens Healthcare Diagnostics Inc., priority 2023, published 2026).

Assay [1] can be described thus: Competitive ELISA of purified antibodies on E1-OVA (55), amphetamine and methamphetamine cross reactivity. In kind it is binding. The protocol:
(§1) Competitive ELISA was used to assess the presence of anti-Ecstasy-class antibodies in animal sera, hybridoma supernatants, and monoclonal antibody (mAb) samples as well as to estimate the level of antibody cross reactivity to amphetamine (Amph) and methamphetamine (mAmph). Antisera and antibody samples were used at the dilution giving a response of about OD=1 at 650 nm (OD650 nm) in an indirect ELISA. Hybridoma supernatants were diluted 1:2 in PBS. (±)-MDMA, (±)-MDA, (±)-amphetamine, and (±)-methamphetamine were used as inhibitors (Cerilliant Corporation, Round Rock, TX). Microtiter ELISA plates were coated and blocked as described above for indirect ELISA. The inhibitors were serially diluted in PBS. 25 μL of the diluted inhibitor was mixed with 25 μL of fixed appropriate antiserum or antibody sample dilution. The mixture was incubated over the E1-OVA (55) solid phase for 1 h. The plates were washed as described above and the bound antibodies were detected with anti-rabbit or anti-mouse IgG HRP-conjugates and TMB substrate as described above.
The anti-ecstasy class mAbs were purified from clarified and filtered hybridoma culture supernatants on a recombinant Protein A Sepharose Fast Flow (GE Life Sciences, Boston USA), dialyzed against PBS containing 0.02% sodium azide and stored at 4° C. The purified mAbs were tested for MDA and MDMA reactivity as well as amphetamine (Amph) and methamphetamine (mAmph) cross reactivity in a competitive assay.

Assay [2] concerns E1-OVA (55). As to the kind of experiment: ELISA binding of hybridoma supernatant to E1-OVA (55) coated plates, without inhibitor. The conditions noted are these: hybridoma supernatant mixed with PBS alone. How it is done:
All ELISA steps were performed at rt. Wells of a Nunc Maxi-Sorp™ flat-bottom ELISA plates (ThermoFisher Scientific, Waltham, MA) were coated with 50 μL E1-OVA (55), E2-OVA (65), and E3-OVA (72) at a concentration of 1 μg/mL in PBS for 1 h. The plates were flicked dried and remaining binding sites were blocked with 200 μL per well of blocking solution (0.5% casein, 0.05% (v/v) Tween 20 in PBS) for one hour. Plates were washed six times with MilliQ water containing 0.05% (v/v) Tween 20 on Biotek 405 LS plate washer equipped with microplate Biostacker 3 (Biotek, Winooski, VT). 50 μL of serially diluted antibody samples (serial dilutions of serum, hybridoma supernatant, or monoclonal antibodies in PBS) were added to each well and incubated for one hour. Unbound antibodies were removed by washing as described above, and 50 μL of secondary goat anti-rabbit IgG HRP or goat anti-mouse IgG (Fc)-HRP conjugate (ThermoFisher Scientific, USA), diluted 1:3,000 in the blocking solution was added to each well for detection bound rabbit or mouse antibody, respectively. Plates were incubated for one hour, washed and 100 μL of TMB substrate (Moss, Pasadena, MD) was added for 15 min to determine bound peroxidase. Optical density (OD) of the samples at 650 nm was measured using an ELISA plate reader (Molecular Devices LLC., San Jose, CA). The titer of each serum sample was designated as the maximum dilution that yielded at least twice the absorbance of the same dilution of the nonimmune control serum.
(§2) The supernatants were screened in a competitive ELISA for the presence of anti-ecstasy compound monoclonal antibodies (mAbs) as follows. 25 μL of the hybridoma supernatant was mixed with equal volume of PBS alone or containing 20 μg/mL inhibitor (MDA or MDMA) were incubated for 1 h in the wells of E1-OVA (55) coated ELISA plates. The plates were washed and the presence of bound mAbs were detected using goat anti-mouse IgG (Fc)-HRP conjugate and TMB substrate as described above. The level of inhibition of mAb/E1-OVA (55) binding in the presence of the inhibitor was estimated using a Percent (%) Inhibition calculated by the below formula:
[formula] • where “OD650 nm w/o Inhibitor” is the binding response of the antibody sample diluted in PBS alone (with no inhibitor), and the “OD650 nm with Inhibitor” is the binding response of the same antibody sample in the presence of 10 μg/mL of inhibitor (i.e., MDA or MDMA). […]

The nature of assay [3]: Competitive ELISA screening of hybridoma supernatants on E1-OVA (55), inhibitor MDA. In kind it is binding. The following applies: for E1-OVA (55) Binding, OD650 nm +MDA: hybridoma supernatant in the presence of 10 μg/mL MDA; for % Inhibition by 10 μg/mL of MDA: inhibition of mAb/E1-OVA (55) binding. The protocol:
as §1, §2
(§3) [formula] • where “OD650 nm w/o Inhibitor” is the binding response of the antibody sample diluted in PBS alone (with no inhibitor), and the “OD650 nm with Inhibitor” is the binding response of the same antibody sample in the presence of 10 μg/mL of inhibitor (i.e., MDA or MDMA).
A general note: ELISA stands for enzyme-linked immunosorbent assay.

The nature of assay [4]: Prototype EMIT ecstasy assay, cross-reactivity with amphetamine. In kind it is biochemical. The following applies: conjugate Compound 58; negative urine pool.
Assay [5] can be described thus: Competitive ELISA screening of hybridoma supernatants on E1-OVA (55), inhibitor MDMA. In kind it is binding. The conditions noted are these: for E1-OVA (55) Binding, OD650 nm +MDMA: hybridoma supernatant in the presence of 10 μg/mL MDMA; for % Inhibition by 10 μg/mL of MDMA: inhibition of mAb/E1-OVA (55) binding. The protocol: as §1, §2, §3
The nature of assay [6]: Prototype EMIT ecstasy assay, cross-reactivity with methamphetamine. In kind it is biochemical. The following applies: conjugate Compound 58; negative urine pool.

B1: 178K 1F4 mAb: mouse monoclonal antibody raised against E1-KLH (56); IgG2b, κ; heavy chain SEQ ID NO 85, light chain SEQ ID NO 109 (antibody)
heavy: MNFGLSLIFLALILKGVQCEVQLVESGGDLVRPGGSLKLSCAASGFIFTNYVMSWVRQTPDKRLEWVATINSVGRYTYYTDSVKGRLTISRNNAKNTLYLQMNSLKSEDTAIYYCAGGNNLDFWGQGTTLTVSSAKTTPPSVYPLAPGCGDTTGSSVTLGCLVKGYFPESVTVTWNSGSLSSSVHTFPALLQSGLYTMSSSVTVPSSTWLSQTVTCSVAHPASSTTVDKKLEPSGPISTIKPCPPCKECHKCPAPNLEGGPSVFIFPPNIKDVLMISLTPKVTCVVVDVSEDDPDVQISWFVNNVEVHTAQTQTHREDYNSTIRVVSALPIQHQDWMSGKEFKCKVNNKDLPSPIERTISKIKGLVRAPQVYILPPPAEQLSRKDVSLTCLVVGFNPGDISVEWTSNGHTEENYKDTAPILDSDGSYFIYSKLNMKTSKWEKTDSFSCNVRHEGLKNNYLKKTISRSPGK
light: MRFSAQLLGLLVLWIPGSTADIVMTQAAFSNPVTLGTSASISCRSSKSLLHSNGITYLYWYLQKPGQSPQLLIYQMSNLASGVPDRFSSSGSGTDFTLRISRVEAEDVGVYYCGQDLELPYSFGGGTKLEIKRADAAPTVSIFPPSSEQLTSGGASVVCFLNNFYPKDINVKWKIDGSERQNGVLNSWTDQDSKDSTYSMSSTLTLTKDEYERHNSYTCEATHKTSTSPIVKSFNRNEC
For the molecule B1, the “cross reactivity in the presence of 1,000 ng/ml of Amph or mAmph” value in assay [1] was “do not show any significant cross reactivity”. The “E1-OVA (55) Binding, OD650 nm w/o inhib” value in assay [2] amounted to 3.012 OD650 nm. In addition, in assay [3], the “E1-OVA (55) Binding, OD650 nm +MDA” value was found to be 0.254 OD650 nm and the “% Inhibition by 10 μg/mL of MDA” value is recorded as 93%. In assay [4], the “Concentrations (μg/mL) of Structurally Related Compounds Equivalent to 500 ng/mL MDMA Cutoffs, (+/−) Amph” value came out at 30 µg/mL. In assay [5], the “E1-OVA (55) Binding, OD650 nm +MDMA” value came to 0.359 OD650 nm and the “% Inhibition by 10 μg/mL of MDMA” value came to 88%. In addition, the “Concentrations (μg/mL) of Structurally Related Compounds Equivalent to 500 ng/mL MDMA Cutoffs, (+/−) mAmph” value in assay [6] is 30 µg/mL.

B2: 178K 1E11 mAb: mouse monoclonal antibody raised against E1-KLH (56); IgG2b, κ; heavy chain SEQ ID NO 183, light chain SEQ ID NO 185 (antibody)
heavy: MNFGLSLIFLALILKGVQCEVQLVESGGDFVKPGGSLKLSCAASGFTFSNYVMSWVRQTPDKRLEWVATINSGGRYTYYPDSVKGRFTISRDNAKNTLYLQMNSLKSDDTAIYYCSGGNYLDYWGQGTTLTVSSAKTTPPSVYPLAPGCGDTTGSSVTLGCLVKGYFPESVTVTWNSGSLSSSVHTFPALLQSGLYTMSSSVTVPSSTWLSQTVTCSVAHPASSTTVDKKLEPSGPISTIKPCPPCKECHKCPAPNLEGGPSVFIFPPNIKDVLMISLTPKVTCVVVDVSEDDPDVQISWFVNNVEVHTAQTQTHREDYNSTIRVVSALPIQHQDWMSGKEFKCKVNNKDLPSPIERTISKIKGLVRAPQVYILPPPAEQLSRKDVSLTCLVVGFNPGDISVEWTSNGHTEENYKDTAPILDSDGSYFIYSKLNMKTSKWEKTDSFSCNVRHEGLKNNYLKKTISRSPGK
light: MRFSAQLLGLLVLWIPGSTADIVMTQAAFSNPVTLGTSASISCRSSKSLLQRNGITYLHWYLQKPGQSPQLLIYRMSNLASGVPERFSSSGSGTDFTLRISRVEAEDVGVYYCGQDLELPYTFGGGTKLEIKRADAAPTVSIFPPSSEQLTSGGASVVCFLNNFYPKDINVKWKIDGSERQNGVLNSWTDQDSKDSTYSMSSTLTLTKDEYERHNSYTCEATHKTSTSPIVKSFNRNEC
For B2, the “cross reactivity in the presence of 1,000 ng/ml of Amph or mAmph” value in assay [1] was “do not show any significant cross reactivity”. Moreover, the “E1-OVA (55) Binding, OD650 nm w/o inhib” value in assay [2] was 3.390 OD650 nm. Also, in assay [3], the “E1-OVA (55) Binding, OD650 nm +MDA” value is given as 0.316 OD650 nm and the “% Inhibition by 10 μg/mL of MDA” value stood at 91%. In assay [5], the “E1-OVA (55) Binding, OD650 nm +MDMA” value is given as 0.301 OD650 nm and the “% Inhibition by 10 μg/mL of MDMA” value came to 91%.
